# From US9696316B2, “Conformationally dynamic peptides” (SYSTEM OF SYSTEMS ANALYTICS, INC., priority 2009, dated 2017)
# Ends that are not written are not given here. * marks the point of attachment. EDANS = O=S(=O)(O)c1cccc2c(NCCN*)cccc12; FAM = 5(6)carboxyfluorescein
# Key:
# Aβ oligomer = Aβ oligomer (Homo sapiens, UniProt P05067); test: Aβ oligomer assay with FRET-labeled probes; type: binding; conditions: FAM/EDANS labeled, water (FIG. 10 bottom panel B: increased β-sheet, FRET signal)
# From the text: Alternatively, as illustrated in bottom panel B of FIG. 10, a peptide probe can be labeled at each terminus with members of a FRET pair (e.g. FAM and EDANS).
# [1] = CD analysis of peptide probe conformation under different pH and salt conditions; type: physicochemical
# Experimental: As discussed in Example 2, histidine and glutamic acid residue substitutions were introduced into Peptides 22, 38 and 45 (SEQ ID NOs: 2-4) so as to permit the formation salt bridges between those residues. CD analysis can be performed on such peptides under different pH and salt conditions to determine the conformation of the peptide under given conditions.
# Peptide 38 (SEQ ID NO:3) labeled at each terminus with a pyrene moiety is used in this example. […] The addition of 500 mM NaCl greatly diminishes the alpha helix conformation in favor of a β-sheet conformation, at both pH levels. Thus, at pH 7, in the presence of 500 mM NaCl (large dashed line), the alpha helix content is 4%, while the fβ-sheet content is 40% (up from 10% without the salt). At pH 4, in the presence of 500 mM NaCl (dashed/dot line), the alpha helix content is 6%, while the β-sheet content is 52% (up from 4% without the salt). […] At greater salt concentrations, the salt bridge is destroyed, and the α helical conformation is no longer stabilized.
# Aβ42 oligomer [2] = biological target: T1, Aβ42 oligomer (Homo sapiens, UniProt P05067); test: CD analysis of peptide probe with target protein; type: binding
# From the text: The conformation of the peptide probe bound to the target protein can be assessed by CD analysis. […] The peptide alone is highly alpha helical (36%). Upon mixing of Peptide 38 with the target protein, the peptide undergoes a conformation shift that results in increased β-sheet conformation, and decreased α helix conformation. That is, the secondary structure of Peptide 38 is altered such that the proportion of a helix is halved (18%), while the proportion of β-sheet structure is enhanced from 20% to 31%. […] Circular dichroism (CD) analysis is used to determine the secondary structure of Peptide 22, synthetic Aβ42 oligomer, and a mixture thereof. Samples are incubated in 10 mM sodium phosphate (pH 7.0) for 3 hours at room temperature before measuring CD. For each sample, the relative ellipticity is evaluated from 190-260 nm. […] Each data set represents the average of three separate spectral scans.
# Aβ42 oligomer [3] = biological target: T1, Aβ42 oligomer; test: Aqueous Aβ oligomer assay, pyrene fluorescence; type: binding
# From the text: The conformation of peptide probe bound to the target protein can also be detected by measuring pyrene fluorescence, on the peptide alone and in combination with the target protein. […] The excimer fluorescence associated with the β-sheet conformation has a different wavelength than the monomer fluorescence associated with the alpha-helix conformation, and the excimer:monomer fluorescence ratio is 9:1. […] The addition of Aβ42 oligomer target protein results in a dose-dependent shift of the excimer:monomer fluorescence ratio to 20:1 at the highest Aβ42 oligomer concentration (0.3 μM). This change in excimer:monomer fluorescence ratio reflects a corresponding conformational change in the peptide, that results in increased β-sheet conformation, and decreased α helix conformation.
# An Aβ oligomer assay may be conducted in an aqueous solvent, such as water. […] Upon introduction of Aβ oligomer, the fluorescence profile shifts to primarily self-fluorescence (monomeric) (see FIG. 11), which is associated with reduced β-sheet structure, or increased alpha helix structure.
# As discussed above, Peptide 22 (SEQ ID NO: 2) undergoes a conformational change upon interaction with Aβ oligomer. FIG. 11 illustrates the fluorescence spectra for Peptide 22 labeled at each terminus with pyrene and incubated in aqueous conditions for several hours at room temperature in 10 mM Hepes (pH 7.0). […] (solid line=Time 0; dashed line=3 hours; dotted line=18 hours).
# Peptide 22 (100 nM) is incubated in water for 15 hours at room temperature with equimolar concentrations ([…]) of several potential Aβ substrates: Aβ42 oligomer (type 1); Aβ42 oligomer (type 2); Aβ1-42 monomer; Aβ1-40 monomer; Aβ1-42 fiber; Aβ1-40 fiber; bovine serum albumin (control substrate); and carbonic anhydrase (control substrate).
# With reference to FIG. 13A, Peptide 22 (70 nM) is incubated with […] synthetic Aβ42 oligomer at 25 C, and fluorescence emission spectra is recorded after 3 hours incubation. […] (solid line—no Aβ42 oligomer; dashed/dot line—30 nN Aβ42 oligomer; large dashed line—100 nN Aβ42 oligomer; small dashed line—300 nN Aβ42 oligomer)
# Aβ42 Fiber = Aβ42 Fiber (Homo sapiens, UniProt P05067); test: In vitro centrifugation-based interaction assay (insoluble complexes); type: binding; conditions: 40% TFE, 3 hours incubation, 17,000×g 30 minutes
# Experimental: In this assay, soluble peptide probes are combined with insoluble target protein fibers in an in vitro centrifugation-based interaction assay. Peptide probe that binds to the target protein will be detected in an insoluble pellet, which may be isolated using centrifugation. […] Aβ42 Fiber (target protein) and peptide probe (SEQ ID NO:1) are incubated for 3 hours in the presence of increasing amounts of trifluoroethanol (TFE). The samples are centrifuged at 17,000×g for 30 minutes, and the pellets are denatured in sample buffer and analyzed by SDS-PAGE. Reference samples (Input) are shown for comparison.
# [4] = biological target: biotinylated Aβ42 oligomers (Homo sapiens, UniProt P05067); test: In vitro affinity chromatography-based interaction assay (streptavidin beads); type: binding; conditions: 4 μM probe
# Experimental: In this assay, soluble peptide probes are combined with, for example, soluble target protein oligomers in an in vitro affinity chromatography-based interaction assay. For this example, target protein is labeled with an affinity molecule, such as biotin, and incubated with a labeled peptide probe. After incubation, the mixture is incubated with the capture moiety, such as streptavidin, on a support, for example a column or beads, such that the target protein is captured. After washing of unbound material, the support can be examined for detection of the labeled peptide probe, which would indicate the presence of bound target protein-peptide probe complexes on the support. Alternatively, the bound material may be eluted and then examined for detection of the labeled peptide probe. Again, detection of the labeled peptide probe would indicate the presence of target protein-peptide probe complexes in the eluant. FIGS. 5A and 15A illustrate an affinity chromatography assay using biotin-labeled target protein and streptavidin-coated beads. This type of assay is useful, for example, for assessing the efficacy of a given peptide probe. […] The beads are washed with PBS to remove unbound material and the captured material is analyzed by SDS-PAGE. […] […]
# Aβ fibers = Aβ fibers (Homo sapiens, UniProt P05067); test: Aβ fiber assay in 40% TFE; type: binding; conditions: di-pyrene labeled
# From the text: An Aβ fiber assay may be conducted in an organic solvent, such as 40% TFE. […] This conformation is associated with the monomer or self fluorescence of the pyrene moieties (370-410 nm; see FIG. 6). […] This conformation is associated with the excimer fluorescence of the pyrene moieties (430-530 nm; see FIG. 6).
# [5] = mixed with Aβ42 oligomer (FIG. 8)
# Sequence of Aβ oligomer (P05067 672-713 limits assumed): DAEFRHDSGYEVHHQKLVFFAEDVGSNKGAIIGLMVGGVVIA
# T1 sequence (P05067 672-713 limits assumed): as above
# Sequence of Aβ fibers (P05067 672-713 limits assumed): as above
# Sequence of Aβ42 Fiber (P05067 672-713 limits assumed): as above
# Sequence of biotinylated Aβ42 oligomers (P05067 672-713 limits assumed): as above
substance,measurement,setting,value
"(FAM)EAA KLVFFAEDEGSRKHAIEGLMEGE(EDANS) ({FAM}-EAAKLVFFAEDEGSRKHAIEGLMEGE(EDANS); not fully specified (C-terminus)) [AD 290, P59, with FAM and EDANS, additional Ala, and solubilizing E residue]",FRET fluorescence behavior upon introduction of Aβ oligomer,Aβ oligomer,fluorescence behavior consistent with this type of conformation change
"(FAM)EFR HDSGYEVHHQKLVFFAEDVGSNKGAIIGLME(EDANS) (EFRHDSGYEVHHQKLVFFAEDVGSNKGAIIGLME; not fully specified; FAM and EDANS labels) [AD292, Aβ residues 3-35, with FAM and EDANS and solubilizing E residue]",FRET fluorescence behavior upon introduction of Aβ oligomer,Aβ oligomer,fluorescence behavior consistent with this type of conformation change
"(FAM)HHQ KLVFFAEDEGSRKHAIEGLMEGE(EDANS) ({FAM}-HHQKLVFFAEDEGSRKHAIEGLMEGE(EDANS); not fully specified (C-terminus)) [AD 291, P77, with FAM and EDANS and solubilizing E residue]",FRET fluorescence behavior upon introduction of Aβ oligomer,Aβ oligomer,fluorescence behavior consistent with this type of conformation change
(FAM)KLVFF AEDVG SNKBA IIELM E(EDANS) [AD293],FRET fluorescence behavior upon introduction of Aβ oligomer,Aβ oligomer,fluorescence behavior consistent with this type of conformation change
"KLVFFAEDAAAAKHAIIELMK (KLVFFAEDAAAAKHAIIELMK) [Peptide 38, Salt bridge at G29H and G33E; Ala substitutions to increase alpha-helicity]",alpha helix content (CD),"[1]; pH 4, 500 mM NaCl",6%
same,β-sheet content (CD),"[1]; pH 4, 500 mM NaCl",52%
same,alpha helix content (CD),"[1]; pH 4, no added salt",52%
same,β-sheet content (CD),"[1]; pH 4, without the salt",4%
same,alpha helix content (CD),"[1]; pH 7, 500 mM NaCl",4%
same,β-sheet content (CD),"[1]; pH 7, 500 mM NaCl",40%
same,alpha helix content (CD),"[1]; pH 7, no added salt",38%
same,β-sheet content (CD),"[1]; pH 7, without the salt",10%
same,proportion of alpha helix (CD),Aβ42 oligomer [2]; [5],18%
same,proportion of β-sheet structure (CD),Aβ42 oligomer [2]; [5],31%
same,proportion of alpha helix (CD),Aβ42 oligomer [2]; peptide alone (FIG. 8),36%
same,proportion of β-sheet structure (CD),Aβ42 oligomer [2]; peptide alone (FIG. 8),20%
same,reactivity with Aβ42 oligomers (transition from pyrene excimer fluorescence to pyrene self-fluorescence),Aβ42 oligomer [3]; aqueous assay,react with Aβ42 oligomers
same,preferential binding by state of self-aggregation of Aβ protein,"Aβ42 oligomer [3]; versus monomers, fibers and control proteins",preferentially binds to Aβ protein in the form of soluble Aβ oligomers
"KLVFFAEDVGSNKGAIIGLMK (KLVFFAEDVGSNKGAIIGLMK) [SEQ ID NO:1, Aβ protein residues 16-35, with added C-Terminal Lys]","binding of peptide probe to Aβ42 fiber (peptide band in pellet, SDS-PAGE)",Aβ42 Fiber,binding of target protein and peptide probe is clearly observed
same,capture of labeled peptide probe with biotinylated Aβ42 oligomer on streptavidin beads (SDS-PAGE),[4],"labeled peptide probe is only detected in the captured material, in the presence of high molecular weight oligomers"
same,"conformation in the absence of Aβ fibers (CD, data not shown)",Aβ fibers,primarily alpha helical
same,conformation upon introduction of an Aβ fiber substrate (pyrene excimer fluorescence),Aβ fibers,adopts a β-sheet conformation
